Measured values from patent publication US20150344570A1 (published 2015).

T1: FcγRIIa H (human, UniProt P12318 34-217)
T1 construct: extracellular domain; also called FcgRIIa H; FcγRIIa type H
T1 sequence (looked up): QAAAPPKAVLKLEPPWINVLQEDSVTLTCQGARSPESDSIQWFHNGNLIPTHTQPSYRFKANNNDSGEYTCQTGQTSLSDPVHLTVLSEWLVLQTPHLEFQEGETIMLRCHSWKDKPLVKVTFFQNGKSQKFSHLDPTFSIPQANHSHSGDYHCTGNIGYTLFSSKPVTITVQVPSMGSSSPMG

T2: FcγRIIb (human, UniProt P31994 43-217)
T2 construct: extracellular domain; also called FcgRIIb; 2b
T2 sequence (looked up): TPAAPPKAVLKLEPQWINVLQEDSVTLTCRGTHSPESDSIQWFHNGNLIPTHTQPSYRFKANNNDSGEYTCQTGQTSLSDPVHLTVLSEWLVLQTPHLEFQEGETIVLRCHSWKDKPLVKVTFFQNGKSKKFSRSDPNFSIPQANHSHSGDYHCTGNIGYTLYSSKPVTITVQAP

B1: GpH7-A5/GpH7-B3 variant K326_08L/GpL16-k0 (antibody, human IgG1, kappa)
heavy 1: not shown
heavy 2: not shown
light: DIVMTQSPLSLPVTPGEPASISCQASESLVHSNRNTYLHWYLQKPGQSPQLLIYKVSNRFSGVPDRFSGSGSGTDFTLKISRVEAEDVGVYYCSQNTHVPPTFGQGTKVEIERTVAAPSVFIFPPSDEQLKSGTASVVCLLNNFYPREAKVQWKVDNALQSGNSQESVTEQDSKDSTYSLSSTLTLSKADYEKHKVYACEVTHQGLSSPVTKSFNRGEC
notes: Heterodimerized antibody, alteration in one H chain only; also called He Ab K326L
B2: GpH7-A5/GpH7-B3 variant S239_06M/GpL16-k0 (antibody, human IgG1, kappa)
heavy 1: not shown
heavy 2: not shown
light: DIVMTQSPLSLPVTPGEPASISCQASESLVHSNRNTYLHWYLQKPGQSPQLLIYKVSNRFSGVPDRFSGSGSGTDFTLKISRVEAEDVGVYYCSQNTHVPPTFGQGTKVEIERTVAAPSVFIFPPSDEQLKSGTASVVCLLNNFYPREAKVQWKVDNALQSGNSQESVTEQDSKDSTYSLSSTLTLSKADYEKHKVYACEVTHQGLSSPVTKSFNRGEC
notes: Heterodimerized antibody, alteration in one H chain only; also called He Ab S239M
B3: GpH7-A5/GpH7-B3 variant P238_16H/GpL16-k0 (antibody, human IgG1, kappa)
heavy 1: not shown
heavy 2: not shown
light: DIVMTQSPLSLPVTPGEPASISCQASESLVHSNRNTYLHWYLQKPGQSPQLLIYKVSNRFSGVPDRFSGSGSGTDFTLKISRVEAEDVGVYYCSQNTHVPPTFGQGTKVEIERTVAAPSVFIFPPSDEQLKSGTASVVCLLNNFYPREAKVQWKVDNALQSGNSQESVTEQDSKDSTYSLSSTLTLSKADYEKHKVYACEVTHQGLSSPVTKSFNRGEC
notes: Heterodimerized antibody, alteration in one H chain only; also called He Ab P238H
B4: GpH7-A5/GpH7-B3 variant P238_19Q/GpL16-k0 (antibody, human IgG1, kappa)
heavy 1: not shown
heavy 2: not shown
light: DIVMTQSPLSLPVTPGEPASISCQASESLVHSNRNTYLHWYLQKPGQSPQLLIYKVSNRFSGVPDRFSGSGSGTDFTLKISRVEAEDVGVYYCSQNTHVPPTFGQGTKVEIERTVAAPSVFIFPPSDEQLKSGTASVVCLLNNFYPREAKVQWKVDNALQSGNSQESVTEQDSKDSTYSLSSTLTLSKADYEKHKVYACEVTHQGLSSPVTKSFNRGEC
notes: Heterodimerized antibody, alteration in one H chain only; also called He Ab P238Q
B5: GpH7-A5/GpH7-B3 variant P238_20W/GpL16-k0 (antibody, human IgG1, kappa)
heavy 1: not shown
heavy 2: not shown
light: DIVMTQSPLSLPVTPGEPASISCQASESLVHSNRNTYLHWYLQKPGQSPQLLIYKVSNRFSGVPDRFSGSGSGTDFTLKISRVEAEDVGVYYCSQNTHVPPTFGQGTKVEIERTVAAPSVFIFPPSDEQLKSGTASVVCLLNNFYPREAKVQWKVDNALQSGNSQESVTEQDSKDSTYSLSSTLTLSKADYEKHKVYACEVTHQGLSSPVTKSFNRGEC
notes: Heterodimerized antibody, alteration in one H chain only; also called He Ab P238W
B6: GpH7-A5/GpH7-B3 variant S239_07I/GpL16-k0 (antibody, human IgG1, kappa)
heavy 1: not shown
heavy 2: not shown
light: DIVMTQSPLSLPVTPGEPASISCQASESLVHSNRNTYLHWYLQKPGQSPQLLIYKVSNRFSGVPDRFSGSGSGTDFTLKISRVEAEDVGVYYCSQNTHVPPTFGQGTKVEIERTVAAPSVFIFPPSDEQLKSGTASVVCLLNNFYPREAKVQWKVDNALQSGNSQESVTEQDSKDSTYSLSSTLTLSKADYEKHKVYACEVTHQGLSSPVTKSFNRGEC
notes: Heterodimerized antibody, alteration in one H chain only; also called He Ab S239I
B7: GpH7-A5/GpH7-B3 variant S239_05P/GpL16-k0 (antibody, human IgG1, kappa)
heavy 1: not shown
heavy 2: not shown
light: DIVMTQSPLSLPVTPGEPASISCQASESLVHSNRNTYLHWYLQKPGQSPQLLIYKVSNRFSGVPDRFSGSGSGTDFTLKISRVEAEDVGVYYCSQNTHVPPTFGQGTKVEIERTVAAPSVFIFPPSDEQLKSGTASVVCLLNNFYPREAKVQWKVDNALQSGNSQESVTEQDSKDSTYSLSSTLTLSKADYEKHKVYACEVTHQGLSSPVTKSFNRGEC
notes: Heterodimerized antibody, alteration in one H chain only; also called He Ab S239P
B8: GpH7-A5/GpH7-B3 variant P238_09D/GpL16-k0 (antibody, human IgG1, kappa)
heavy 1: not shown
heavy 2: not shown
light: DIVMTQSPLSLPVTPGEPASISCQASESLVHSNRNTYLHWYLQKPGQSPQLLIYKVSNRFSGVPDRFSGSGSGTDFTLKISRVEAEDVGVYYCSQNTHVPPTFGQGTKVEIERTVAAPSVFIFPPSDEQLKSGTASVVCLLNNFYPREAKVQWKVDNALQSGNSQESVTEQDSKDSTYSLSSTLTLSKADYEKHKVYACEVTHQGLSSPVTKSFNRGEC
notes: Heterodimerized antibody, alteration in one H chain only; also called He Ab P238D
B9: GpH7-A5/GpH7-B3 variant S239_03V/GpL16-k0 (antibody, human IgG1, kappa)
heavy 1: not shown
heavy 2: not shown
light: DIVMTQSPLSLPVTPGEPASISCQASESLVHSNRNTYLHWYLQKPGQSPQLLIYKVSNRFSGVPDRFSGSGSGTDFTLKISRVEAEDVGVYYCSQNTHVPPTFGQGTKVEIERTVAAPSVFIFPPSDEQLKSGTASVVCLLNNFYPREAKVQWKVDNALQSGNSQESVTEQDSKDSTYSLSSTLTLSKADYEKHKVYACEVTHQGLSSPVTKSFNRGEC
notes: Heterodimerized antibody, alteration in one H chain only; also called He Ab S239V
B10: GpH7-A5/GpH7-B3 variant P271_08L/GpL16-k0 (antibody, human IgG1, kappa)
heavy 1: not shown
heavy 2: not shown
light: DIVMTQSPLSLPVTPGEPASISCQASESLVHSNRNTYLHWYLQKPGQSPQLLIYKVSNRFSGVPDRFSGSGSGTDFTLKISRVEAEDVGVYYCSQNTHVPPTFGQGTKVEIERTVAAPSVFIFPPSDEQLKSGTASVVCLLNNFYPREAKVQWKVDNALQSGNSQESVTEQDSKDSTYSLSSTLTLSKADYEKHKVYACEVTHQGLSSPVTKSFNRGEC
notes: Heterodimerized antibody, alteration in one H chain only; also called He Ab P271L
B11: GpH7-A5/GpH7-B3 variant P271_10E/GpL16-k0 (antibody, human IgG1, kappa)
heavy 1: not shown
heavy 2: not shown
light: DIVMTQSPLSLPVTPGEPASISCQASESLVHSNRNTYLHWYLQKPGQSPQLLIYKVSNRFSGVPDRFSGSGSGTDFTLKISRVEAEDVGVYYCSQNTHVPPTFGQGTKVEIERTVAAPSVFIFPPSDEQLKSGTASVVCLLNNFYPREAKVQWKVDNALQSGNSQESVTEQDSKDSTYSLSSTLTLSKADYEKHKVYACEVTHQGLSSPVTKSFNRGEC
notes: Heterodimerized antibody, alteration in one H chain only; also called He Ab P271E
B12: GpH7-A5/GpH7-B3 variant S267_01G/GpL16-k0 (antibody, human IgG1, kappa)
heavy 1: not shown
heavy 2: not shown
light: DIVMTQSPLSLPVTPGEPASISCQASESLVHSNRNTYLHWYLQKPGQSPQLLIYKVSNRFSGVPDRFSGSGSGTDFTLKISRVEAEDVGVYYCSQNTHVPPTFGQGTKVEIERTVAAPSVFIFPPSDEQLKSGTASVVCLLNNFYPREAKVQWKVDNALQSGNSQESVTEQDSKDSTYSLSSTLTLSKADYEKHKVYACEVTHQGLSSPVTKSFNRGEC
notes: Heterodimerized antibody, alteration in one H chain only; also called He Ab S267G
B13: GpH7-A5/GpH7-B3 variant S239_18N/GpL16-k0 (antibody, human IgG1, kappa)
heavy 1: not shown
heavy 2: not shown
light: DIVMTQSPLSLPVTPGEPASISCQASESLVHSNRNTYLHWYLQKPGQSPQLLIYKVSNRFSGVPDRFSGSGSGTDFTLKISRVEAEDVGVYYCSQNTHVPPTFGQGTKVEIERTVAAPSVFIFPPSDEQLKSGTASVVCLLNNFYPREAKVQWKVDNALQSGNSQESVTEQDSKDSTYSLSSTLTLSKADYEKHKVYACEVTHQGLSSPVTKSFNRGEC
notes: Heterodimerized antibody, alteration in one H chain only; also called He Ab S239N
B14: GpH7-A5/GpH7-B3 variant P271_09D/GpL16-k0 (antibody, human IgG1, kappa)
heavy 1: not shown
heavy 2: not shown
light: DIVMTQSPLSLPVTPGEPASISCQASESLVHSNRNTYLHWYLQKPGQSPQLLIYKVSNRFSGVPDRFSGSGSGTDFTLKISRVEAEDVGVYYCSQNTHVPPTFGQGTKVEIERTVAAPSVFIFPPSDEQLKSGTASVVCLLNNFYPREAKVQWKVDNALQSGNSQESVTEQDSKDSTYSLSSTLTLSKADYEKHKVYACEVTHQGLSSPVTKSFNRGEC
notes: Heterodimerized antibody, alteration in one H chain only; also called He Ab P271D
B15: GpH7-A5/GpH7-B3 variant P238_15Y/GpL16-k0 (antibody, human IgG1, kappa)
heavy 1: not shown
heavy 2: not shown
light: DIVMTQSPLSLPVTPGEPASISCQASESLVHSNRNTYLHWYLQKPGQSPQLLIYKVSNRFSGVPDRFSGSGSGTDFTLKISRVEAEDVGVYYCSQNTHVPPTFGQGTKVEIERTVAAPSVFIFPPSDEQLKSGTASVVCLLNNFYPREAKVQWKVDNALQSGNSQESVTEQDSKDSTYSLSSTLTLSKADYEKHKVYACEVTHQGLSSPVTKSFNRGEC
notes: Heterodimerized antibody, alteration in one H chain only; also called He Ab P238Y
B16: GpH7-A5/GpH7-B3 variant P238_10E/GpL16-k0 (antibody, human IgG1, kappa)
heavy 1: not shown
heavy 2: not shown
light: DIVMTQSPLSLPVTPGEPASISCQASESLVHSNRNTYLHWYLQKPGQSPQLLIYKVSNRFSGVPDRFSGSGSGTDFTLKISRVEAEDVGVYYCSQNTHVPPTFGQGTKVEIERTVAAPSVFIFPPSDEQLKSGTASVVCLLNNFYPREAKVQWKVDNALQSGNSQESVTEQDSKDSTYSLSSTLTLSKADYEKHKVYACEVTHQGLSSPVTKSFNRGEC
notes: Heterodimerized antibody, alteration in one H chain only; also called He Ab P238E
B17: GpH7-A5/GpH7-B3 variant S239_01G/GpL16-k0 (antibody, human IgG1, kappa)
heavy 1: not shown
heavy 2: not shown
light: DIVMTQSPLSLPVTPGEPASISCQASESLVHSNRNTYLHWYLQKPGQSPQLLIYKVSNRFSGVPDRFSGSGSGTDFTLKISRVEAEDVGVYYCSQNTHVPPTFGQGTKVEIERTVAAPSVFIFPPSDEQLKSGTASVVCLLNNFYPREAKVQWKVDNALQSGNSQESVTEQDSKDSTYSLSSTLTLSKADYEKHKVYACEVTHQGLSSPVTKSFNRGEC
notes: Heterodimerized antibody, alteration in one H chain only; also called He Ab S239G
B18: GpH7-A5/GpH7-B3 variant P238_08L/GpL16-k0 (antibody, human IgG1, kappa)
heavy 1: not shown
heavy 2: not shown
light: DIVMTQSPLSLPVTPGEPASISCQASESLVHSNRNTYLHWYLQKPGQSPQLLIYKVSNRFSGVPDRFSGSGSGTDFTLKISRVEAEDVGVYYCSQNTHVPPTFGQGTKVEIERTVAAPSVFIFPPSDEQLKSGTASVVCLLNNFYPREAKVQWKVDNALQSGNSQESVTEQDSKDSTYSLSSTLTLSKADYEKHKVYACEVTHQGLSSPVTKSFNRGEC
notes: Heterodimerized antibody, alteration in one H chain only; also called He Ab P238L

Experiments:
FcγRIIa H = target: T1, FcγRIIa H; experiment: SPR (Biacore), antibody captured, FcγR analyte; binding relative to GpH7-A5/GpH7-B3/GpL16-k0 = 100
FcγRIIb = target: T2, FcγRIIb; experiment: as above

| Binder | He/Con_2aH (FcγRIIa H) | He/Con_2b (FcγRIIb) |
| --- | --- | --- |
| B1 | 92.7 % of control | 177 % of control |
| B2 | 98.6 % of control | 101 % of control |
| B3 | 45.9 % of control | 115 % of control |
| B4 | 56.4 % of control | 110 % of control |
| B5 | 59.5 % of control | 123 % of control |
| B6 | 91.5 % of control | 107 % of control |
| B7 | 33.3 % of control | 102 % of control |
| B8 | 87.5 % of control | 221 % of control |
| B9 | 91 % of control | 108 % of control |
| B10 | 86.7 % of control | 103 % of control |
| B11 | 63.1 % of control | 109 % of control |
| B12 | 71.3 % of control | 105 % of control |
| B13 | 94.2 % of control | 119 % of control |
| B14 | 70.1 % of control | 120 % of control |
| B15 | 59.8 % of control | 218 % of control |
| B16 | 77.1 % of control | 232 % of control |
| B17 | 97 % of control | 144 % of control |
| B18 | 84.6 % of control | 204 % of control |
